Target: microtubules (pig brain tubulin) (pig, UniProt P02550 1-451; Q767L7 1-444, Cy3 or Cy5 and biotin labels on a fraction of the tubulin | Cy3 or Cy5 and biotin labels on a fraction of the tubulin)
Sequence (P02550 other isoform, or with tags, fused parts or gaps, chain 1 of 2): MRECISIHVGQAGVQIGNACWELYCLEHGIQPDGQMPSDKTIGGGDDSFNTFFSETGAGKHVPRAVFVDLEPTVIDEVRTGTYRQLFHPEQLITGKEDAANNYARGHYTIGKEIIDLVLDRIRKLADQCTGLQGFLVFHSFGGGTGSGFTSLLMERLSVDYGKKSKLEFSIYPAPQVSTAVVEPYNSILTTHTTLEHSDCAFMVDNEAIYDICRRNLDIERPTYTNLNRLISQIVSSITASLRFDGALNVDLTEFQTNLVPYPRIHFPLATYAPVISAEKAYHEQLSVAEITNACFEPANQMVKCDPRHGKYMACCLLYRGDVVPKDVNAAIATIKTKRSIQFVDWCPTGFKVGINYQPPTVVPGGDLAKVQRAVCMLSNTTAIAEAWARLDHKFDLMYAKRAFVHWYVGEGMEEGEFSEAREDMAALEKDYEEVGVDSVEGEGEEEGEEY
Sequence (Q767L7 other isoform, or with tags, fused parts or gaps, chain 2 of 2): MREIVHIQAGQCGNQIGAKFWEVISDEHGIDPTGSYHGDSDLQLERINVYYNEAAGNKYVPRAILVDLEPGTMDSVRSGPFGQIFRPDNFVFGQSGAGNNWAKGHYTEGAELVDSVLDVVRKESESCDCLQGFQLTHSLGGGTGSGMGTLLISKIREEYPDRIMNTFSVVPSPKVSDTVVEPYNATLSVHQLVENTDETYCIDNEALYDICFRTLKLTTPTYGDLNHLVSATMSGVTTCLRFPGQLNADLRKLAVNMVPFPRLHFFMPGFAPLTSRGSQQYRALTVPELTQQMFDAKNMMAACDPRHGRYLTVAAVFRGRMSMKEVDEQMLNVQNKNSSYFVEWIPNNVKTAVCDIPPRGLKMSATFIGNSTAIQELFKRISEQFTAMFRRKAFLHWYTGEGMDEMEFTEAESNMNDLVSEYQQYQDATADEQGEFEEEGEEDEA

B1: NuMA Bonsai (other)
chain: MTLHATRGAALLSWVNSLHVADPVEAVLQLQDCSIFIKIIDRIHGTEEGQQILKQPVSERLDFVCSFLQKNRKHPSSPECLVSAQKVLEGSELELAKMTMLLLYHSTMSSKSPRDWEQFEYKIQAELAVILKFVLDHEDGLNLNEDLENFLQKAPVPSTCSSTFPEELSPPSHQAKREIRFLELQKVASSSSGNNFLSGSPASPMGDILQTPQFQMRRLKKQLADERSNRDELELELAENRKLLTEKDAQIAMMQQRIDRLALLNEKQAASPLEPKELEELRDKNESLTMRLHETLKQCQDLKTEKSQMDRKINQLSEENGDLSFKLREFASHLQQLQDALNELTEEHSKATQEWLEKQAQLEKELSAALQDKKCLEEKNEILQGKLSQLEEHLSQLQDNPPQEKGEVLGDVLQLETLKQEAATLAANNTQLQARVEMLETERGQQEAKLLAERGHFEEEKQQLSSLITDLQSSISNLSQAKEELEQASQAHGARLTAQVASLTSELTTLNATIQQQDQELAGLKQQAKEKQAQLAQTLQQQEQASQGLRHQVEQLSSSLKQKEQQLKEVAEKQEATRQDHAQQLATAAEEREASLRERDAALKQLEALEKEKAAKLEILQQQLQVANEARDSAQTSVTQAQREKAELSRKVEELQACVETARQEQHEAQAQVAELELQLRSEQQKATEKERVAQEKDQLQEQLQFQVATDALKSREPQAKPQLDLSIDSLDLSCEEGTPLSITSKLPRTQPDGTSVPGEPASPISQRLPPKVESLESLYFTPIPARSQAPLESSLDSLGDVFLDSGRKTRSARRRTTQIINITMTKKLDVEEPDSANSSFYSTRSAPASQASLRATSSTQSLARLGSPDYGNSALLSLPGYRPTTRSSARRSQAGVSSGAPPGRNSFYMGTCQDEPEQLDDWNRIAELQQRNRVCPPHLKTCYPLESRPSLSLGTITDEEMKTGDPQETLRRASMQPIQIAEGTGITTRQQRKRVSLEPHQGPGTPESKKATSCFPRPMTPRDRHEGRKQSTTEAQKKAAPASTKQADRRQSMAFSILNTPKKLGNSLLRRGASKKALSKASPNTRSGTRRSPRIATTTASAATAAAIGATPRAKGKAKH
  Kd: 279 nM

Source: publication doi:10.1101/2024.11.26.625568 (2024)
